{"source": "patent US20240092842A1", "target": "PME crude extract of Arabidopsis thaliana stem (Arabidopsis thaliana)", "assay": "cell-based or functional assay"}
{"substance": "recombinant GhPMEI39 protein (pColdTF-GhPMEI39 fusion protein with 6xHis-Tag, expressed in Escherichia coli BL21 (DE3))", "values": [{"measurement": "PME enzyme activity in the reaction solution (pectin / bromothymol blue, OD 620 nm) at PME:GhPMEI39 1:2", "result": 24, "unit": "%"}]}
